Patent publication US20230212319A1, “NOVEL ANTIGEN BINDING DOMAINS AND SYNTHETIC ANTIGEN RECEPTORS INCORPORATING THE SAME” (University of Southern California, priority 2020, published 2023)

B1: 22083 (protein)
chain: MALPVTALLLPLALLLHAARPQLQLQESGPGLVKPSETLSLTCTVSGDSISSGDYYWGWIRQPPGKGLEWIGHIYYSGVTYYNPSLKSRVTISVDTSRNQFSLKLSSVTAADTAVYYCTREDSSNWRSRGQGTLVTVSSLESGGGGSFEEVQLLESGGGLVQPGGSLRLSCAASGFTFSSYAMSWVRQAPGKGLEWVSSISGSGDYIYYADSVKGRFTISRDISKNTLYLQMNSLRAEDTAVYYCAKEGTGANSSLADYRGQGTLVTVSSTRDKTHTCPPCPAIPEDTFFPSPESSCDVKLVEKSFETDTNLNFQNLSVIGFRILLLKVAGFNLLMTLRLWSS
B2: 22090 (protein)
chain: MALPVTALLLPLALLLHAARPQLQLQESGPGLVKPSETLSLTCTVSGDSISSGDYYWGWIRQPPGKGLEWIGHIYYSGVTYYNPSLKSRVTISVDTSRNQFSLKLSSVTAADTAVYYCTREDSSNWRSRGQGTLVTVSSLEDKTHTCPPCPAGRADCGFTSESYQQGVLSATILYEILLGKATLYAVLVSALVLMAMVKRKDSRGRAKRSGSGATNFSLLKQAGDVEENPGPTSMDWIWRILFLVGAATGAHSFEVQLLESGGGLIQPGGSLRLSCAASGFTFSSHAMTWVRQAPGKGLEWVSAISGSGDYTHYADSVKGRFTISRDNSKNTVYLQMNSLRAEDSAVYYCAKDEDGGSLLGHRGQGTLVTVSSTRIQNPDPAVYQLRDSKSSDKSVCLFTDFDSQTNVSQSKDSDVYITDKCVLDMRSMDFKSNSAVAWSNKSDFACANAFNNSIIPEDTFFPSPESSCDVKLVEKSFETDTNLNFQNLSVIGFRILLLKVAGFNLLMTLRLWSSRAKRSGSGVKQTLNFDLLKLAGDVESNPGPSRGHMTEYKPTVRLATRDDVPRAVRTLAAAFADYPATRHTVDPDRHIERVTELQELFLTRVGLDIGKVWVADDGAAVAVWTTPESVEAGAVFAEIGPRMAELSGSRLAAQQQMEGLLAPHRPKEPAWFLATVGVSPDHQGKGLGSAVVLPGVEAAERAGVPAFLETSAPRNLPFYERLGFTVTADVEVPEGPRTWCMTRKPGA
B3: 22098 (protein)
chain: MALPVTALLLPLALLLHAARPQVQLVESGGGLVQPGGSLRLSCAASGFTFTNHAMSWVRQAPGKGLELVSSISGNGRTTYYADSVKGRFTISRDISKNTLDLQMNSLRAEDTAVYYCAKDGGETLVDSRGQGTLVTVSSLEGQPKANPTVTLFPPSSEELQANKATLVCLISDFYPGAVTVAWKADGSPVKAGVETTKPSKQSNNKYAASSYLSLTPEQWKSHRSYSCQVTHEGSTVEKTVAPTECSPIKTDVITMDPKDNCSKDANDTLLLQLTNTSAYYMYLLLLLKSVVYFAIITCCLLRRTAFCCNGEKSRAKRSGSGATNFSLLKQAGDVEENPGPTSMDWIWRILFLVGAATGAHSFEEVQLLESGGGLVQPGGSLRLSCAASGFTFSSYAMSWVRQAPGKGLEWVSSISGSGDYIYYADSVKGRFTISRDISKNTLYLQMNSLRAEDTAVYYCAKEGTGANSSLADYRGQGTLVTVSSTRASTKGPSVFPLAPSSKSTSGGTAALGCLVKDYFPEPVTVSWNSGALTSGVHTFPAVLQSSGLYSLSSVVTVPSSSLGTQTYICNVNHKPSNTKVDKRVEPKSCEVKTDSTDHVKPKETENTKQPSKSCHKPKAIVHTEKVNMMSLTVLGLRMLFAKTVAVNFLLTAKLFFLRAKRSGSGVKQTLNFDLLKLAGDVESNPGPSRGHMTEYKPTVRLATRDDVPRAVRTLAAAFADYPATRHTVDPDRHIERVTELQELFLTRVGLDIGKVWVADDGAAVAVWTTPESVEAGAVFAEIGPRMAELSGSRLAAQQQMEGLLAPHRPKEPAWFLATVGVSPDHQGKGLGSAVVLPGVEAAERAGVPAFLETSAPRNLPFYERLGFTVTADVEVPEGPRTWCMTRKPGA
B4: 22099 (protein)
chain: MALPVTALLLPLALLLHAARPQVQLVESGGGLVQPGGSLRLSCAASGFTFTNHAMSWVRQAPGKGLELVSSISGNGRTTYYADSVKGRFTISRDISKNTLDLQMNSLRAEDTAVYYCAKDGGETLVDSRGQGTLVTVSSLEGQPKANPTVTLFPPSSEELQANKATLVCLISDFYPGAVTVAWKADGSPVKAGVETTKPSKQSNNKYAASSYLSLTPEQWKSHRSYSCQVTHEGSTVEKTVAPTECSGRADCGFTSESYQQGVLSATILYEILLGKATLYAVLVSALVLMAMVKRKDSRGRAKRSGSGATNFSLLKQAGDVEENPGPTSMDWIWRILFLVGAATGAHSFEEVQLLESGGGLVQPGGSLRLSCAASGFTFSSYAMSWVRQAPGKGLEWVSSISGSGDYIYYADSVKGRFTISRDISKNTLYLQMNSLRAEDTAVYYCAKEGTGANSSLADYRGQGTLVTVSSTRASTKGPSVFPLAPSSKSTSGGTAALGCLVKDYFPEPVTVSWNSGALTSGVHTFPAVLQSSGLYSLSSVVTVPSSSLGTQTYICNVNHKPSNTKVDKRVEPKSCIPEDTFFPSPESSCDVKLVEKSFETDTNLNFQNLSVIGFRILLLKVAGFNLLMTLRLWSSRAKRSGSGVKQTLNFDLLKLAGDVESNPGPSRGHMTEYKPTVRLATRDDVPRAVRTLAAAFADYPATRHTVDPDRHIERVTELQELFLTRVGLDIGKVWVADDGAAVAVWTTPESVEAGAVFAEIGPRMAELSGSRLAAQQQMEGLLAPHRPKEPAWFLATVGVSPDHQGKGLGSAVVLPGVEAAERAGVPAFLETSAPRNLPFYERLGFTVTADVEVPEGPRTWCMTRKPGA
B5: 22152 (protein)
chain: MALPVTALLLPLALLLHAARPEVQLLESGGGLVQPGGSLRLSCAASGFTFSSYAMSWVRQAPGKGLEWVSSISGSGDYIYYADSVKGRFTISRDISKNTLYLQMNSLRAEDTAVYYCAKEGTGANSSLADYRGQGTLVTVSSGTGGGGSGGGGSGGGGSEFSYVLTQPPSVSVAPGQTARITCGGNNIGGKSVHWYQQPPGQAPVVVVYDDSDRPSGIPERFSGSNSGNTATLTISRVEAGDEAVYYCQVWDSSSDHVVFGGGTKLTVLLEDLKNVFPPEVAVFEPSEAEISHTQKATLVCLATGFYPDHVELSWWVNGKEVHSGVCTDPQPLKEQPALNDSRYCLSSRLRVSATFWQNPRNHFRCQVQFYGLSENDEWTQDRAKPVTQIVSAEAWGRADCGFTSESYQQGVLSATILYEILLGKATLYAVLVSALVLMAMVKRKDSRGRAKRSGSGATNFSLLKQAGDVEENPGPTSMDWIWRILFLVGAATGAHSFEQLQLQESGPGLVKPSETLSLTCTVSGGSISSSSYFWGWIRQPPGKGLEWIGSIYYSGITYYNPSLKSRVTISVDTSKNQFSLKLSSVTAADTAVYYCARHDGAVAGLFDYWGQGTLVTVSSATRIQNPDPAVYQLRDSKSSDKSVCLFTDFDSQTNVSQSKDSDVYITDKCVLDMRSMDFKSNSAVAWSNKSDFACANAFNNSIIPEDTFFPSPESSCDVKLVEKSFETDTNLNFQNLSVIGFRILLLKVAGFNLLMTLRLWSSRAKRSGSGVKQTLNFDLLKLAGDVESNPGPSRGHMTEYKPTVRLATRDDVPRAVRTLAAAFADYPATRHTVDPDRHIERVTELQELFLTRVGLDIGKVWVADDGAAVAVWTTPESVEAGAVFAEIGPRMAELSGSRLAAQQQMEGLLAPHRPKEPAWFLATVGVSPDHQGKGLGSAVVLPGVEAAERAGVPAFLETSAPRNLPFYERLGFTVTADVEVPEGPRTWCMTRKPGA
B6: 22153 (protein)
chain: MALPVTALLLPLALLLHAARPACEVQLLESGGGLIQPGGSLRLSCAASGFTFSSHAMTWVRQAPGKGLEWVSAISGSGDYTHYADSVKGRFTISRDNSKNTVYLQMNSLRAEDSAVYYCAKDEDGGSLLGHRGQGTLVTVSSGTGGGGSGGGGSGGGGSEFSYVLTQPPSVSVAPGQTARITCGGNNIGGKSVHWYQQPPGQAPVVVVYDDSDRPSGIPERFSGSNSGNTATLTISRVEAGDEAVYYCQVWDSSSDHVVFGGGTKLTVLLEGQPKANPTVTLFPPSSEELQANKATLVCLISDFYPGAVTVAWKADGSPVKAGVETTKPSKQSNNKYAASSYLSLTPEQWKSHRSYSCQVTHEGSTVEKTVAPTECSPIKTDVITMDPKDNCSKDANDTLLLQLTNTSAYYMYLLLLLKSVVYFAIITCCLLRRTAFCCNGEKSRAKRSGSGATNFSLLKQAGDVEENPGPTSATMDWIWRILFLVGAATGAHSGPQVQLQESGGGLAQAGGSLRLSCAASGRTFSMGWFRQAPGKEREFVAAITYSGGSPYYASSVRGRFTISRDNAKNTVYLQMNSLKPEDTAVYYCAANPTYGSDWNAENWGQGTQVTVSSGSGGGGSGGGGSGGGGSFEQLQLQESGPGLVKPSETLSLTCTVSGGSISSSSYFWGWIRQPPGKGLEWIGSIYYSGITYYNPSLKSRVTISVDTSKNQFSLKLSSVTAADTAVYYCARHDGAVAGLFDYWGQGTLVTVSSATRASTKGPSVFPLAPSSKSTSGGTAALGCLVKDYFPEPVTVSWNSGALTSGVHTFPAVLQSSGLYSLSSVVTVPSSSLGTQTYICNVNHKPSNTKVDKRVEPKSCEVKTDSTDHVKPKETENTKQPSKSCHKPKAIVHTEKVNMMSLTVLGLRMLFAKTVAVNFLLTAKLFFLRAKRSGSGVKQTLNFDLLKLAGDVESNPGPSRGHMTEYKPTVRLATRDDVPRAVRTLAAAFADYPATRHTVDPDRHIERVTELQELFLTRVGLDIGKVWVADDGAAVAVWTTPESVEAGAVFAEIGPRMAELSGSRLAAQQQMEGLLAPHRPKEPAWFLATVGVSPDHQGKGLGSAVVLPGVEAAERAGVPAFLETSAPRNLPFYERLGFTVTADVEVPEGPRTWCMTRKPGA

Test system: RAJI cells
Assay: JNG assay, co-culture with RAJI cells
Assay type: cell-based
Settings: JNG cells expressing construct, co-culture with Raji
In short: (§1)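 Jurkat-NFAT-GFP (JNG) cells stably expressing SAR constructs via lentiviral transduction and puromycin/blasticidin selection were cocultured with target cells at E:T ~1:2 for ~4–18 h. NFAT-driven GFP was measured by FACS versus parental JNG cells; scores +/- to 5+ denote ~5–50% GFP-positive cells.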

Molecule | NFAT-GFP ASSAY: Raji
B1 | +/- (refer to approximately 5%, 10%, 20%, 30%, 40% and 50% GFP positive cells)

Test system: L363 cells
Assay: JNG assay, co-culture with L363 cells
Assay type: cell-based
Settings: co-culture with L363
In short: as §1

Molecule | NFAT-GFP ASSAY: L363
B2 | 3+ (refer to approximately 5%, 10%, 20%, 30%, 40% and 50% GFP positive cells)
B3 | L363 (4+) (refer to approximately 5%, 10%, 20%, 30%, 40% and 50% GFP positive cells)
B1 | +/- (refer to approximately 5%, 10%, 20%, 30%, 40% and 50% GFP positive cells)
B4 | L363 (2+) (refer to approximately 5%, 10%, 20%, 30%, 40% and 50% GFP positive cells)
B5 | 2+ (refer to approximately 5%, 10%, 20%, 30%, 40% and 50% GFP positive cells)
B6 | 2+ (refer to approximately 5%, 10%, 20%, 30%, 40% and 50% GFP positive cells)
